Measurements reported in PMC10397247.
Where two headings read alike, the source gives them in different places.

Tests used:
4H3844-AA = biological target: T1, 4H3844-AA; assay: two-hybrid library CCmax; settings: mean of both orientations;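 also: natural log of median RNA to DNA barcode read ratio; higher means stronger binding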
T1 chain: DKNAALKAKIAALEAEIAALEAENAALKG

4H3627-AA = biological target: T2, 4H3627-AA; assay: two-hybrid library CCmax;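 also: natural log of median RNA to DNA barcode read ratio; higher means stronger binding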
T2 chain: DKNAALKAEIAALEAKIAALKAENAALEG

4H429-AA = biological target: T3, 4H429-AA; assay: two-hybrid library CCmax; settings: mean of both orientations;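 also: natural log of median RNA to DNA barcode read ratio; higher means stronger binding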
T3 chain: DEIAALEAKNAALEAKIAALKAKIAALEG

4H566-AA = biological target: T4, 4H566-AA; assay: two-hybrid library CCmax; settings: mean of both orientations;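 also: natural log of median RNA to DNA barcode read ratio; higher means stronger binding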
T4 chain: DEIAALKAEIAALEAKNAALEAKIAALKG

4H906-AA = biological target: T5, 4H906-AA; assay: two-hybrid library CCmax; settings: mean of both orientations;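 also: natural log of median RNA to DNA barcode read ratio; higher means stronger binding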
T5 chain: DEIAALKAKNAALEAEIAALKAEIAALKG

4H780-AA = biological target: T6, 4H780-AA; assay: two-hybrid library CCmax; settings: mean of both orientations;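 also: natural log of median RNA to DNA barcode read ratio; higher means stronger binding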
T6 chain: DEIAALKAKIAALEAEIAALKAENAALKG

Q7-AA = biological target: T7, Q7-AA; assay: two-hybrid library CCmax; settings: mean of both orientations
T7 chain: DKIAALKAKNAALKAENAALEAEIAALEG

Q3-AA = biological target: T8, Q3-AA; assay: two-hybrid library CCmax; settings: mean of both orientations
T8 chain: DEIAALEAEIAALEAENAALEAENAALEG

4H454-AA = biological target: T9, 4H454-AA; assay: two-hybrid library CCmax; settings: mean of both orientations
T9 chain: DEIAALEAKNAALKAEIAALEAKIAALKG

4H678-AA = biological target: T10, 4H678-AA; assay: two-hybrid library CCmax; settings: mean of both orientations
T10 chain: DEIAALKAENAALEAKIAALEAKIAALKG

4H993-AA = biological target: T11, 4H993-AA; assay: two-hybrid library CCmax; settings: mean of both orientations
T11 chain: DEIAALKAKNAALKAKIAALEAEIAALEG

4H605-AA = biological target: T12, 4H605-AA; assay: two-hybrid library CCmax; settings: mean of both orientations
T12 chain: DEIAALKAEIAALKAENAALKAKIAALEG

Q8-AA = biological target: T13, Q8-AA; assay: two-hybrid library CCmax; settings: mean of both orientations
T13 chain: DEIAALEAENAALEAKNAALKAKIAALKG

4H48-AA = biological target: T14, 4H48-AA; assay: two-hybrid library CCmax
T14 chain: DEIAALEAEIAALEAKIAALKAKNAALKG

4H3718-AA = biological target: T15, 4H3718-AA; assay: two-hybrid library CCmax
T15 chain: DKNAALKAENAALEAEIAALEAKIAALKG

4H881-AA = biological target: T16, 4H881-AA; assay: two-hybrid library CCmax; settings: mean of both orientations
T16 chain: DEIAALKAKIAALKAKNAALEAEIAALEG

4H717-AA = biological target: T17, 4H717-AA; assay: two-hybrid library CCmax; settings: mean of both orientations
T17 chain: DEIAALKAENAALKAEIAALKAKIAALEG

4H3921-AA = biological target: T18, 4H3921-AA; assay: two-hybrid library CCmax; settings: mean of both orientations
T18 chain: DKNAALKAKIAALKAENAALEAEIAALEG

4H3655-AA = biological target: T19, 4H3655-AA; assay: two-hybrid library CCmax; settings: mean of both orientations
T19 chain: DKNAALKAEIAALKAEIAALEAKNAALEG

4H794-AA = biological target: T20, 4H794-AA; assay: two-hybrid library CCmax; settings: mean of both orientations
T20 chain: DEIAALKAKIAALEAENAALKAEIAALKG

4H2760-bH = biological target: T21, 4H2760-bH; assay: two-hybrid library CCNG1
T21 chain: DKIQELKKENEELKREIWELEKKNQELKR

4H730-bH = biological target: T22, 4H730-bH; assay: two-hybrid library CCNG1
T22 chain: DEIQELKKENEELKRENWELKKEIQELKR

4H932-bH = biological target: T23, 4H932-bH; assay: two-hybrid library CCNG1
T23 chain: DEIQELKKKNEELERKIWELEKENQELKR

4H2444-bH = biological target: T24, 4H2444-bH; assay: two-hybrid library CCNG1
T24 chain: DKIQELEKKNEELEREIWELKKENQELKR

4H2931-bH = biological target: T25, 4H2931-bH; assay: two-hybrid library CCNG1
T25 chain: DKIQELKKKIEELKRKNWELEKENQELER

4H235-bH = biological target: T26, 4H235-bH; assay: two-hybrid library CCNG1
T26 chain: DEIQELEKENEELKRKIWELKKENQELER

4H56-bH = biological target: T27, 4H56-bH; assay: two-hybrid library CCNG1
T27 chain: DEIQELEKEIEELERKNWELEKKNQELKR

4H3297-bH = biological target: T28, 4H3297-bH; assay: two-hybrid library CCNG1
T28 chain: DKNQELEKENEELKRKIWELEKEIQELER

4H2518-bH = biological target: T29, 4H2518-bH; assay: two-hybrid library CCNG1
T29 chain: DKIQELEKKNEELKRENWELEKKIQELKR

4H349-bH = biological target: T30, 4H349-bH; assay: two-hybrid library CCNG1
T30 chain: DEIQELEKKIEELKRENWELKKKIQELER

4H3381-bH = biological target: T31, 4H3381-bH; assay: two-hybrid library CCNG1
T31 chain: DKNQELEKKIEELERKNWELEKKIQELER

4H2585-bH = biological target: T32, 4H2585-bH; assay: two-hybrid library CCNG1
T32 chain: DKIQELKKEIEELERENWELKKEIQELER

4H3041-bH = biological target: T33, 4H3041-bH; assay: two-hybrid library CCNG1
T33 chain: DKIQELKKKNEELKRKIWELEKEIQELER

4H319-bH = biological target: T34, 4H319-bH; assay: two-hybrid library CCNG1
T34 chain: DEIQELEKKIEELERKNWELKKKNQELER

4H264-bH = biological target: T35, 4H264-bH; assay: two-hybrid library CCNG1
T35 chain: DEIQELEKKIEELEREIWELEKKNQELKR

O5 = biological target: T36, O5; assay: two-hybrid library CCNG1
T36 chain: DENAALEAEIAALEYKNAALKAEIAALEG

4H2233-bH = biological target: T37, 4H2233-bH; assay: two-hybrid library CCNG1
T37 chain: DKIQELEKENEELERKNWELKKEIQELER

4H796-bH = biological target: T38, 4H796-bH; assay: two-hybrid library CCNG1
T38 chain: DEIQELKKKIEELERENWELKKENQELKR

4H2253-bH = biological target: T39, 4H2253-bH; assay: two-hybrid library CCNG1
T39 chain: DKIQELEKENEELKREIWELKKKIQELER

4H949-bH = biological target: T40, 4H949-bH; assay: two-hybrid library CCNG1
T40 chain: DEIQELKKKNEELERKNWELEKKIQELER

4H3364-bH = biological target: T41, 4H3364-bH; assay: two-hybrid library CCNG1
T41 chain: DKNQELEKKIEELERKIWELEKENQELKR

4H2859-bH = biological target: T42, 4H2859-bH; assay: two-hybrid library CCNG1
T42 chain: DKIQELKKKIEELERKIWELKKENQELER

4H384-AA = biological target: T43, 4H384-AA; assay: two-hybrid library CCmax; settings: mean of both orientations
T43 chain: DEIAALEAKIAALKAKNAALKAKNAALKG

4H982-AA = biological target: T44, 4H982-AA; assay: two-hybrid library CCmax; settings: mean of both orientations
T44 chain: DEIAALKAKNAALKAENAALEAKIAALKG

4H697-AA = biological target: T45, 4H697-AA; assay: two-hybrid library CCmax; settings: mean of both orientations
T45 chain: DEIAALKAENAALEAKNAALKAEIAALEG

4H3865-AA = biological target: T46, 4H3865-AA; assay: two-hybrid library CCmax; settings: mean of both orientations
T46 chain: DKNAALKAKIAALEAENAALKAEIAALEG

4H335-AA = biological target: T47, 4H335-AA; assay: two-hybrid library CCmax; settings: mean of both orientations
T47 chain: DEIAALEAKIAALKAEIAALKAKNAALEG

4H3112-AA = biological target: T48, 4H3112-AA; assay: two-hybrid library CCmax; settings: mean of both orientations
T48 chain: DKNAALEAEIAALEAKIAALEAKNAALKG

4H317-AA = biological target: T49, 4H317-AA; assay: two-hybrid library CCmax; settings: mean of both orientations
T49 chain: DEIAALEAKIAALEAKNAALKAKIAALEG

4H3606-AA = biological target: T50, 4H3606-AA; assay: two-hybrid library CCmax; settings: mean of both orientations
T50 chain: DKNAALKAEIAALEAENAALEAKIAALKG

4H342-AA = biological target: T51, 4H342-AA; assay: two-hybrid library CCmax; settings: mean of both orientations
T51 chain: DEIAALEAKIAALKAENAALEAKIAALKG

4H3427-AA = biological target: T52, 4H3427-AA; assay: two-hybrid library CCmax; settings: mean of both orientations
T52 chain: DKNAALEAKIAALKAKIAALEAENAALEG

4H3343-AA = biological target: T53, 4H3343-AA; assay: two-hybrid library CCmax; settings: mean of both orientations
T53 chain: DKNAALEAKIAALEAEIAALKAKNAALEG

4H2944-AA = biological target: T54, 4H2944-AA; assay: two-hybrid library CCmax
T54 chain: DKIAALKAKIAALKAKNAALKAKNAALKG

4H2949-AA = biological target: T55, 4H2949-AA; assay: two-hybrid library CCmax; settings: mean of both orientations
T55 chain: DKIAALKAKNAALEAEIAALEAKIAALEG

DKNAALKAEIAALEAKIAALKAENAALEG [4H3627-AA]
interaction score (4H3844-AA): 1.03 | interaction score (4H3627-AA): 0.53 | interaction score (4H429-AA): -1.09 | interaction score (4H566-AA): -0.771 | interaction score (4H906-AA): -1.34 | interaction score (4H780-AA): -1 | interaction score (Q7-AA): -1.97 | interaction score (Q3-AA): -1.24 | interaction score (4H454-AA): 0.554 | interaction score (4H678-AA): -1.31 | interaction score (4H993-AA): -1.08 | interaction score (4H605-AA): -1.4 | interaction score (Q8-AA): -0.702 | interaction score (4H48-AA; mean of both orientations): -0.478 | interaction score (4H3718-AA; mean of both orientations): -0.468 | interaction score (4H881-AA): -1.04 | interaction score (4H717-AA): -1.79 | interaction score (4H3921-AA): -1.63 | interaction score (4H3655-AA): -0.0982 | interaction score (4H794-AA): -1.93

DKIQELEKENEELERKNWELKKEIQELER [4H2233-bH]
interaction score (4H2760-bH): -0.804 | interaction score (4H730-bH): -0.961 | interaction score (4H932-bH): -1.01 | interaction score (4H2444-bH): -0.446 | interaction score (4H2931-bH): -0.862 | interaction score (4H235-bH): -0.93 | interaction score (4H56-bH): -1.28 | interaction score (4H3297-bH): -0.069 | interaction score (4H2518-bH): 1.4 | interaction score (4H349-bH): 0.0715 | interaction score (4H3381-bH): -0.723 | interaction score (4H2585-bH): -0.529 | interaction score (4H3041-bH): -0.641 | interaction score (4H319-bH): -0.931 | interaction score (4H264-bH): -0.0896 | interaction score (O5): -1.37 | interaction score (4H2233-bH): 0.18 | interaction score (4H796-bH): -0.815 | interaction score (4H2253-bH): -0.0513 | interaction score (4H949-bH): -0.96 | interaction score (4H3364-bH): -0.899 | interaction score (4H2859-bH): -0.442

DKNAALKAENAALEAEIAALEAKIAALKG [4H3718-AA]
interaction score (Q7-AA): -0.973 | interaction score (Q3-AA): -1.46 | interaction score (4H384-AA): 0.145 | interaction score (4H982-AA): -1.15 | interaction score (Q8-AA): 1.05 | interaction score (4H697-AA): -0.465 | interaction score (4H3718-AA): -0.586 | interaction score (4H3865-AA): -1.49

DKIAALKAKIAALKAKNAALKAKNAALKG [4H2944-AA]
interaction score (4H335-AA): -1.7 | interaction score (4H3844-AA): 0.407 | interaction score (4H3627-AA; mean of both orientations): -0.579 | interaction score (4H429-AA): -1.71 | interaction score (4H566-AA): 0.106 | interaction score (4H3112-AA): -0.15 | interaction score (4H906-AA): -1.83 | interaction score (4H780-AA): -1.43 | interaction score (Q7-AA): -1.77 | interaction score (Q3-AA): 1.67 | interaction score (4H454-AA): -1.8 | interaction score (4H317-AA): -1.04 | interaction score (4H678-AA): -1.67 | interaction score (4H3606-AA): -0.0316 | interaction score (4H993-AA): -2.01 | interaction score (4H605-AA): -1.34 | interaction score (Q8-AA): -1.55 | interaction score (4H48-AA): -1.33 | interaction score (4H342-AA): 1.12 | interaction score (4H3718-AA; mean of both orientations): -0.87 | interaction score (4H3427-AA): -0.0703 | interaction score (4H881-AA): -0.992 | interaction score (4H3343-AA): -1.17 | interaction score (4H717-AA): -1.69 | interaction score (4H2944-AA): -1.62 | interaction score (4H2949-AA): -1.55 | interaction score (4H3921-AA): -0.731 | interaction score (4H3655-AA): -0.297 | interaction score (4H794-AA): -1.89
